For 1 protein, Km and kcat results are on record in paper PMC5562730, “Three recombinantly expressed apple tyrosinases suggest the amino acids responsible for mono- versus diphenolase activity in plant polyphenol oxidases” (Scientific Reports, 2017).

Substrate in series [1]: NCCc1ccc(O)cc1
The experiment in a line: purified protein. The class given is biochemical, Malus domestica. Particulars: 50 mM Tris-HCl pH 7.0, 25 °C, 3 mM SDS as activator.

Substrate in series [2]: NCCc1ccc(O)c(O)c1
The experiment in a line: purified protein. It counts as biochemical, Malus domestica. Particulars: 50 mM Tris-HCl pH 7.0, 25 °C, 3 mM SDS as activator.

B1: MdPPO1 (Malus domestica) (protein)
chain: KPIAPPDVSKCGPADLPQGAVPTNCCPPPSTKIIDFKLPAPAKLRIRPPAHAVDQAYRDKYYKAMELMKALPDDDPRSFKQQAAVHCAYCDGAYDQVGFPELELQIHNSWLFFPFHRYYLYFFEKILGKLINDPTFALPFWNWDSPAGMPLPAIYADPKSPLYDKLRSANHQPPTLVDLDYNGTEDNVSKETTINANLKIMYRQMVSNSKNAKLFFGNPYRAGDEPDPGGGSIEGTPHAPVHLWTGDNTQPNFEDMGNFYSAGRDPIFFAHHSNVDRMWSIWKTLGGKRTDLTDSDWLDSGFLFYNENAELVRVKVRDCLETKNLGYVYQDVDIPWLSSKPTPRRAKVALSKVAKKLGVAHAAVASSSKVVAGTEFPISLGSKISTVVKRPKQKKRSKKAKEDEEEILVIEGIEFDRDVAVKFDVYVNDVDDLPSGPDKTEFAGSFVSVPHSHKHKKKMNTILRLGLTDLLEEIEAEDDDSVVVTLVPKFGAVKIGGIKIEFAS
notes: latent pro-enzyme without transit peptide, C-terminal domain kept; GST tag cut (HRV3C, pGEX-6P-1 SmaI); E. coli BL21
In the case of B1, the Km (usually the concentration of substrate that gives half-maximal velocity) in series [1] is 710 ± 36 µM; in series [2], 480 ± 38 µM. Further, the kcat – broadly, the number of substrate molecules converted per active site and unit of time at saturation – came to 9.5 ± 0.43 s⁻¹ in series [1] and 100 ± 4.54 s⁻¹ in series [2].
